Like-named read-outs stand apart in the source and are kept apart here.

Assay [1] addresses T1, Rat NOGO (A56) plus GST tag (rat).
T1 construct: also called GST-NOGO-A56 from rat
Put plainly: direct ELISA on GST-NOGO-A56 from rat, Abs490.

Assay [2] concerns the target T2, native human Nogo-A of IMR32 neuroblastoma cells (intracellular) (human, UniProt Q9NQC3 1-1192).
T2 construct: whole, on cells; Detected inside permeabilised, fixed cells (ER-resident), not on the cell surface; also called intracellular Nogo-A; native Nogo-A
T2 sequence (looked up): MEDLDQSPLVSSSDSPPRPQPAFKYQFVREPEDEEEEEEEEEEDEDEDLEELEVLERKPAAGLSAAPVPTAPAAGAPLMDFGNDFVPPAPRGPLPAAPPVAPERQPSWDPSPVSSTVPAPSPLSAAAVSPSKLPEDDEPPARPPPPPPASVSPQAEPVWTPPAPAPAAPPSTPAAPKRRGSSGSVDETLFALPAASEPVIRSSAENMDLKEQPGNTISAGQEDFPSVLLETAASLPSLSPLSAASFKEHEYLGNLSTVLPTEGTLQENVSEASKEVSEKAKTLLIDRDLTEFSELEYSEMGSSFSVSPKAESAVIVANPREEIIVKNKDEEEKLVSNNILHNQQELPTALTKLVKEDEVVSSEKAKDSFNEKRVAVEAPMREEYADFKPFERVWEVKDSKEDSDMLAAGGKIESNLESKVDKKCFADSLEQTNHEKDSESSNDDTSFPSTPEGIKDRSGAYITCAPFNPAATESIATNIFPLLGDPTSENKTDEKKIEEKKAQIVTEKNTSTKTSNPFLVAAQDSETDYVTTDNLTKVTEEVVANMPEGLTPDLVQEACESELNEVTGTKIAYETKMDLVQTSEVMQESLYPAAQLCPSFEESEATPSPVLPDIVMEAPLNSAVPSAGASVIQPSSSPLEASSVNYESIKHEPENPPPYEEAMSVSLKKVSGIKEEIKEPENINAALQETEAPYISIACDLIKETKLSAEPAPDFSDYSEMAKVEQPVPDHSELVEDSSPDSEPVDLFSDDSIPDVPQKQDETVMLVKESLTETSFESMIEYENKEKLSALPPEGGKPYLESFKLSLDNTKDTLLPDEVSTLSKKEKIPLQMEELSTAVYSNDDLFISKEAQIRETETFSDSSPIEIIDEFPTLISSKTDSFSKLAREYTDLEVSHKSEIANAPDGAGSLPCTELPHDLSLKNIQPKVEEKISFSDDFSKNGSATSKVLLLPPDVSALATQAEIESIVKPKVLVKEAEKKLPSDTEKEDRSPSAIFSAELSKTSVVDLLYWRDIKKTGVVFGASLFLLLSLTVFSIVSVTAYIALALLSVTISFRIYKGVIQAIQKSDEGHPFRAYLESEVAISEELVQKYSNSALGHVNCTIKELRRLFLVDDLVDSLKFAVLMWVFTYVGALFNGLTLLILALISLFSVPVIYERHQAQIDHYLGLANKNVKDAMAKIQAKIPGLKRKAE
Put plainly: flow cytometry on permeabilised, fixed IMR32 cells (intracellular Nogo-A), PE anti-human IgG, MFI.
Protocol: In the second assay, the ability of the humanised antibodies to bind native Nogo-A was assessed using a human neuroblastoma cell line—IMR32. This cell line is characterised by high intracellular/low cell surface levels of Nogo-A protein. In an attempt to increase the binding signal, the assay was set-up to detect intracellular Nogo-A (ER-resident). IMR32 cells were permeabilised and fixed prior to staining with the anti-Nogo-A humanised antibodies. Binding of the antibodies to Nogo-A was detected using an anti-human IgG-PE labelled secondary (Sigma, #P8047).

In assay [3] the target is T3, Cynomolgus monkey NOGO (A56) plus GST tag (cynomolgus monkey).
T3 construct: also called cynomolgus Nogo-A; GST-NOGO-A56 from cynomolgus
T3 sequence (chain, as listed by the source limits assumed): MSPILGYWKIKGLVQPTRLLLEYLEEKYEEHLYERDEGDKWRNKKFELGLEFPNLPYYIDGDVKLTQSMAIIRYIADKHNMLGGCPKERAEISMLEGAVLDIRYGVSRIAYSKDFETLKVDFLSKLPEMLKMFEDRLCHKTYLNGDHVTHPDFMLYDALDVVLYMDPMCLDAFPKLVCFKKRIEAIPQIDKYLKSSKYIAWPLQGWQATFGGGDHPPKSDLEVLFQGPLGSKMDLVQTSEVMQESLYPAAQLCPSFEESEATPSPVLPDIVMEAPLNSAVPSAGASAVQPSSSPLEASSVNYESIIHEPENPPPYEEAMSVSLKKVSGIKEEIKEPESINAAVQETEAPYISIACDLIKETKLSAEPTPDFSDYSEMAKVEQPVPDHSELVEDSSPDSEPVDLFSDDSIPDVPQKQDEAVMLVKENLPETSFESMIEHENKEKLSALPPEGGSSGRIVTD
Put plainly: direct ELISA on GST-NOGO-A56 from cynomolgus, Abs490.

The target in assay [4] is T4, GST-human NOGO-A56 (human).
T4 construct: Expressed in E. coli BL21 from pGEX-6P1 and purified on glutathione-sepharose; the GST tag is part of the protein in the assays; also called GST-Nogo-A 5+6; GST Nogo-A 5 + 6
T4 sequence (chain, as listed by the source limits assumed): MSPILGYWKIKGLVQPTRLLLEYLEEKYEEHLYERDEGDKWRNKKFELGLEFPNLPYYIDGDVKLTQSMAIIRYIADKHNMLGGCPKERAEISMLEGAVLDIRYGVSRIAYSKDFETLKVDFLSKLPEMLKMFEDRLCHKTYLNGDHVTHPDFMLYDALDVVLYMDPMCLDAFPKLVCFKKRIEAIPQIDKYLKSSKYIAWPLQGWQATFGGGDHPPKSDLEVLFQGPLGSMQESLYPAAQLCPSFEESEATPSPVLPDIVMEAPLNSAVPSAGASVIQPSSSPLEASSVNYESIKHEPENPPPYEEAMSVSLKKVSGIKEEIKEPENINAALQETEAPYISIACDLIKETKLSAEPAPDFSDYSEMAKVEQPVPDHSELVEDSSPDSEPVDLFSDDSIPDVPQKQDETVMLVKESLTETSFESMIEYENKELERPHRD
In words: SPR (Biacore), GST-human NOGO-A56 amine-coupled to CM5, antibody flowed over, 25 C.
Protocol: (§1) GST-human NOGO-A56 was immobilised to a CM5 chip by primary amine coupling using the Biacore Wizard program designed for targeted immobilisation levels. The CM5 sensor surface was activated by passing a solution of 50 mM N-hydroxy-succinimide (NHS) and 200 mM N-ethyl-N′-dimethylaminopropyl carbonide (EDC). Then GST-human NOGO-A56 in sodium acetate buffer, pH5.0 or pH 4.5, was passed over the chip and immobilised. After immobilisation was complete any still activated esters were blocked by an injection of 1M ethanolamine hydrochloride, pH8.5.
(§2) The anti-NOGO mAbs were diluted down in HBS-EP (10 mM HEPES, pH 7.4, 150 mM NaCl, 3 mM EDTA, and 0.005% P-20 surfactant) for the BIAcore 3000 or HBS-EP+ (10 mM HEPES, pH 7.4, 150 mM NaCl, 3 mM EDTA, and 0.05% P-20 surfactant) in the case of the T100 and binding studies were carried out at range of defined antibody concentrations. All runs were referenced against a blanked sensor surface (one that had been activated and blocked as described earlier but had no addition of ligand). Analysis of binding was carried out using the BIAevaluation kinetic analysis software version 4.1 for the BIAcore 3000 and T100 kinetic analysis software version 1.0. […] Unless otherwise stated, the BIAcore experiments were performed at 25° C.

Assay [5] addresses T4, GST-human NOGO-A56. In words: reverse format ELISA: antibody captured on anti-human IgG, GST-Nogo-A 5+6 detected with anti-GST-HRP; the x axis is the antibody concentration.
For assay [6], the target named is T5, Marmoset NOGO (A56) plus GST tag (marmoset).
T5 construct: also called GST-NOGO-A56 from marmoset
T5 sequence (chain, as listed by the source limits assumed): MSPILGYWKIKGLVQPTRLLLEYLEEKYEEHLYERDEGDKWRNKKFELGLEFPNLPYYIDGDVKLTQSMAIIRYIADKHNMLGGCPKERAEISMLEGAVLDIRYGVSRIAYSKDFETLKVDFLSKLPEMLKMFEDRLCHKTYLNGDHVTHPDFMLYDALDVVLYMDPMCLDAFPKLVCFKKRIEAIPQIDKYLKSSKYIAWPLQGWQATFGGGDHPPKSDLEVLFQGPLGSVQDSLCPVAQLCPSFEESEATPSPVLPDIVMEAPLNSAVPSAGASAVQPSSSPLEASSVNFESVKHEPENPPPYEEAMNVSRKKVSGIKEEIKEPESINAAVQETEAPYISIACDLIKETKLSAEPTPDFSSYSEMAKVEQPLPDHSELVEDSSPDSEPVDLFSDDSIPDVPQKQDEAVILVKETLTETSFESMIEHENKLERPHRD
Put plainly: direct ELISA on GST-NOGO-A56 from marmoset, Abs490.

The target of assay [7] is T4, GST-human NOGO-A56. In words: SPR (Biacore), GST-human NOGO-A56 amine-coupled to CM5, antibody flowed over, 25 C. The source holds these as a separate data set.
Protocol: as §1, §2
For assay [8], the target named is T5, Marmoset NOGO (A56) plus GST tag. In words: SPR (Biacore T100), reverse format: antibody captured by Protein A, GST-NOGO-A56 flowed over; mean.
Description: (§3) Protein A was immobilised on the surface at about 4000RUs and anti-Nogo-A antibodies were captured at approximately 300-400RUs. […] All the runs were done in duplicates. The values show the mean and standard deviation (in brackets) of 1-3 independent runs with each run done in duplicate and each data set analysed independently prior to calculation of the mean and standard deviation.
Assay [9] addresses T4, GST-human NOGO-A56. Described as above.
Description: as §3
The target of assay [10] is T1, Rat NOGO (A56) plus GST tag. The assay is described as above.
Description: as §3
The target in assay [11] is T3, Cynomolgus monkey NOGO (A56) plus GST …. Described as above.
Description: as §3
For assay [12], the target named is T6, Squirrel monkey NOGO (A56) plus GST tag (squirrel monkey).
T6 construct: also called GST-NOGO-A56 from squirrel monkey
T6 sequence (chain, as listed by the source limits assumed): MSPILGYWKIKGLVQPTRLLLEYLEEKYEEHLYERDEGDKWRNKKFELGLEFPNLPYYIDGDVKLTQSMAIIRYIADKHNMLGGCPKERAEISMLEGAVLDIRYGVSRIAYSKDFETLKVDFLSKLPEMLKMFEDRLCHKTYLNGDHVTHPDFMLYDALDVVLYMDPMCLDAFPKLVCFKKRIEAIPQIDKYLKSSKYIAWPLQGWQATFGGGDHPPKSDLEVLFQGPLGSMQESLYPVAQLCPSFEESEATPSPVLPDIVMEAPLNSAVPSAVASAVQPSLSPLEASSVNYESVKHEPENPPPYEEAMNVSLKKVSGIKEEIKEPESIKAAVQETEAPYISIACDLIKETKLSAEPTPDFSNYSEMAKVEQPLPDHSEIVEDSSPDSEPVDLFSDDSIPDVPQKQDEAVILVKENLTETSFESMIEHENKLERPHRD
The description is as above.
Description: as §3

Assay [13] deals with T4, GST-human NOGO-A56. Put plainly: SPR (Biacore T100), human Nogo-A amine-coupled to CM5, antibody 0.125-8 nM flowed over; mean.
The target in assay [14] is T4, GST-human NOGO-A56. In words: direct ELISA, GST-human NOGO-A56 coated at 1.0 mcg/ml, purified antibody, OD490.
Protocol: Wells were rinsed once with TBS+0.05% Tween (TBST) then incubated with 2% BSA in TBST to block non-specific binding sites at room temperature for 1 hour. Antibodies were diluted in TBST+2% BSA to 10 μg/ml and ½ dilutions made from this. Antibodies were added to wells in duplicate and incubated at room temperature for 1 hour. […] The wells were washed three times with TBST and then incubated with 100 μl OPD peroxidase substrate (Sigma) per well for 10 minutes. The colour reaction was stopped by the addition of 25 μl concentrated H₂SO₄. Optical density at 490 nm was measured using a plate reader. Background values read from wells with no antibody were subtracted.
Assay [15] concerns the target T4, GST-human NOGO-A56. Put plainly: SPR (Biacore T100), antigen amine-coupled to CM5, antibody 0.125-8 nM; mean of six runs in duplicate (SD in brackets).
Description: In the first approach, the recombinant Nogo-A was coupled to the surface of the chip and anti-Nogo-A antibodies passed over this surface. In the second approach, Protein A was used to capture the antibody onto the surface of the chip over which the recombinant GST-human Nogo-A56 was passed.
The antigen was bound to the CM5 chip by primary amine coupling. […] The values show the mean and standard deviation (in brackets) of six independent runs carried out in duplicate. Each completed data set was analysed independently prior to the calculation of mean and standard deviation.

T1 sequence (chain, as listed by the source limits assumed): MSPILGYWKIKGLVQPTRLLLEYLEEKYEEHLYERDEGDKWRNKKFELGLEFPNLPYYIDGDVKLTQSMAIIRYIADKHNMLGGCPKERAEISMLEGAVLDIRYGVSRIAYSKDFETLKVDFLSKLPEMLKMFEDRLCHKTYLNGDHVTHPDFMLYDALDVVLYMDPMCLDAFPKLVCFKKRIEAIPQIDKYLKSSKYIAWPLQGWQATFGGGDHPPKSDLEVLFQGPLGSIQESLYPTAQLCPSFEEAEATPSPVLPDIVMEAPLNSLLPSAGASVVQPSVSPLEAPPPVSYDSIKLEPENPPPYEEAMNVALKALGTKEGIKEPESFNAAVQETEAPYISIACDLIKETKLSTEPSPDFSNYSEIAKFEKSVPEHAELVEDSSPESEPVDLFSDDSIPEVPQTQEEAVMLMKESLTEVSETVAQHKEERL

B1: HcLc (chimera of 2A10: murine 2A10 VH and VL with human IgG constant regions) (antibody, V domains shown)
VH: QVQLQQPGTELVKPGASVKLSCKASGYTFTSYWMHWVKQRPGQGLEWIGNINPSNGGTNYNEKFKSKATLTVDKSSSTAYMQLSSLTSEDSAVYYCELGQGYWGQGTLVTVSS
VL: DIVITQDELSNPVTSGESVSISCRSSKSLLYKDGKTYLNWFLQRPGQSPQLLIYLMSTRASGVSDRFSGSGSGTDFTLEISRVKAEDVGVYYCQQLVEYPLTFGAGTKLELKR
notes: also called chimeric antibody; chimeric form of the parental antibody
With B1, the “EC50 (read off the curve)” value in assay [1] is roughly 0.1 µg/mL; in [3], roughly 0.1 µg/mL; in assay [5] it was roughly 0.1 µg/mL; in assay [6] it was roughly 0.09 µg/mL; in assay [14] it was roughly 0.09 µg/mL. Further, the binding result in assay [2] is given as “binds”. Also, the Kd in [4] was 0.74 nM; in [7], 0.779 nM; in [8] it was 4.51 nM; in [9] it was 0.54 nM; in assay [10] it was 2.01 nM; in [11], 4.66 nM. Besides, the Kd is 7.45 nM in assay [12], 1.86 nM in assay [13] and 1.86 nM in assay [15]. Besides, the results for the koff in assay [4] and in assay [7] were 0.00233 s⁻¹ and 0.00249 s⁻¹, respectively. In addition, the kon in assay [4] came out at 3.17e+06 M⁻¹ s⁻¹; in assay [7], 3.19e+06 M⁻¹ s⁻¹.

B2: H28L16 (antibody, human IgG1, kappa)
heavy: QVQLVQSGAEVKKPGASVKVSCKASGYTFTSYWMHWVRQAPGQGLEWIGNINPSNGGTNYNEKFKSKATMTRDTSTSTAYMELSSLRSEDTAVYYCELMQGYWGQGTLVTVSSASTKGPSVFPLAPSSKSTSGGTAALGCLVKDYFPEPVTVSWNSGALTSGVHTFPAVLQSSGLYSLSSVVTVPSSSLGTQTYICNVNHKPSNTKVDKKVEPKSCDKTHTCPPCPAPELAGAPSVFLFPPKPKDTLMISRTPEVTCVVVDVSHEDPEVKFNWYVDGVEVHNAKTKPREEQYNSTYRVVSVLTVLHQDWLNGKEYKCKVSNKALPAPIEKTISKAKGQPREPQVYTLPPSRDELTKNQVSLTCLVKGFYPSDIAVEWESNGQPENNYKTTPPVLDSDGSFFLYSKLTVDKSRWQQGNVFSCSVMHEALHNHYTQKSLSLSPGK
light: DIVMTQSPLSNPVTLGQPVSISCRSSKSLLYKDGKTYLNWFLQRPGQSPQLLIYLMSTRASGVPDRFSGGGSGTDFTLKISRVEAEDVGVYYCQQLVEYPLTFGQGTKLEIKRTVAAPSVFIFPPSDEQLKSGTASVVCLLNNFYPREAKVQWKVDNALQSGNSQESVTEQDSKDSTYSLSSTLTLSKADYEKHKVYACEVTHQGLSSPVTKSFNRGEC
notes: IgG1 (L235A, G237A) / kappa; CAMPATH-1H signal (1-19) left out; also called H28FL L16FL; NOGO H28L16
As to B2, the “EC50 (read off the curve)” value was roughly 0.05 µg/mL in assay [1]; roughly 0.05 µg/mL in assay [3]; roughly 0.06 µg/mL in assay [5]; roughly 0.04 µg/mL in assay [6]; roughly 0.08 µg/mL in [14]. In addition, the binding result in assay [2] is listed as “binds”. Further, the Kd in assay [4] stood at 0.28 nM; in assay [7], 0.296 nM; in assay [8] it was 4.89 nM; in assay [9] it was 0.4 nM; in assay [10] it was 1.76 nM; in assay [11], 3.41 nM. In addition, the results for the Kd in assay [12], in assay [13] and in [15] were 6.86 nM, 0.64 nM and 0.64 nM, respectively. Besides, the off-rate constant (koff) in [4] was found to be 0.00195 s⁻¹; in [7] it was 0.00214 s⁻¹. The kon in assay [4] worked out at 6.89e+06 M⁻¹ s⁻¹; in assay [7], 7.25e+06 M⁻¹ s⁻¹; in assay [13] it was 6.97e+06 M⁻¹ s⁻¹.

Source of the values: patent US20130287781A1 (GlaxoSmithKline, published 2013).
